In patent publication US20060264363:
Residue numbers refer to the chain shown, from its start. In names and notes the source's numbering stands.

How the values were obtained:
[1] = molecular target: T1, biotinylated SHC3 (p52), C-terminal tagged (pcDNA3.1/V5-His)
T1 chain: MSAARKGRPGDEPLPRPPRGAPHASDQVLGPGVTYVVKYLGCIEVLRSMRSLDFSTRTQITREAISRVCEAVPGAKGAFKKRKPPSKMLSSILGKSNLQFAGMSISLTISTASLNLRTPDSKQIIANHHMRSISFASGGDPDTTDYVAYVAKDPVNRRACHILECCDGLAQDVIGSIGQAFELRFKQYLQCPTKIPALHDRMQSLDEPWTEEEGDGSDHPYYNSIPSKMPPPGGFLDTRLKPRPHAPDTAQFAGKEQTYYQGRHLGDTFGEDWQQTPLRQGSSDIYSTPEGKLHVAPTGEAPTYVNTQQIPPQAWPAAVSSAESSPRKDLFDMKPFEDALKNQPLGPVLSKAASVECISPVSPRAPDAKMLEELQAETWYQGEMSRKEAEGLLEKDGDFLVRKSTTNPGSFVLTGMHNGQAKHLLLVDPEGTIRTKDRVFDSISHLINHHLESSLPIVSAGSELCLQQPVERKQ

[2] = molecular target: T2, biotinylated SHC3 (p64), C-terminal tagged (pcDNA3.1/V5-His)
T2 chain: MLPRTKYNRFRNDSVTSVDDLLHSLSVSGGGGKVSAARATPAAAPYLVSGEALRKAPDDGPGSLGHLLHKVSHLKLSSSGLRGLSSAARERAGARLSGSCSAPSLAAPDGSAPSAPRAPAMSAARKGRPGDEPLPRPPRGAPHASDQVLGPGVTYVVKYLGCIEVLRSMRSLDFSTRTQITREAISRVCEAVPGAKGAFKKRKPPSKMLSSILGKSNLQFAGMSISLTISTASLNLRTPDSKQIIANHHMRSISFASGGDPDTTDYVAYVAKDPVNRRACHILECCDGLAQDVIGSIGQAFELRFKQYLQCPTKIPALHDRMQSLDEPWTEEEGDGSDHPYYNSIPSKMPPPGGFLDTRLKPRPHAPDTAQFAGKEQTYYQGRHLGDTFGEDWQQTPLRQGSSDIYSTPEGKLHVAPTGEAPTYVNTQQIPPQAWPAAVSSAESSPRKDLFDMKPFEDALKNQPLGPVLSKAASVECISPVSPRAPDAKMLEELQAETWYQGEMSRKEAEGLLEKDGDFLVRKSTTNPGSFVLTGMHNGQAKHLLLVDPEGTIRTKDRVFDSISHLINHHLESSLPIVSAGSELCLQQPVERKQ

[3] = molecular target: T3, SHC3 (p52) with C-terminal c-Myc-tag
T3 chain: T1 chain

[4] = molecular target: T4, SHC3 (p64) with C-terminal c-Myc-tag
T4 chain: T2 chain

[5] = molecular target: T5, biotinylated CREBL1, N-terminal tagged (pcDNA3.1/His)
T5 chain: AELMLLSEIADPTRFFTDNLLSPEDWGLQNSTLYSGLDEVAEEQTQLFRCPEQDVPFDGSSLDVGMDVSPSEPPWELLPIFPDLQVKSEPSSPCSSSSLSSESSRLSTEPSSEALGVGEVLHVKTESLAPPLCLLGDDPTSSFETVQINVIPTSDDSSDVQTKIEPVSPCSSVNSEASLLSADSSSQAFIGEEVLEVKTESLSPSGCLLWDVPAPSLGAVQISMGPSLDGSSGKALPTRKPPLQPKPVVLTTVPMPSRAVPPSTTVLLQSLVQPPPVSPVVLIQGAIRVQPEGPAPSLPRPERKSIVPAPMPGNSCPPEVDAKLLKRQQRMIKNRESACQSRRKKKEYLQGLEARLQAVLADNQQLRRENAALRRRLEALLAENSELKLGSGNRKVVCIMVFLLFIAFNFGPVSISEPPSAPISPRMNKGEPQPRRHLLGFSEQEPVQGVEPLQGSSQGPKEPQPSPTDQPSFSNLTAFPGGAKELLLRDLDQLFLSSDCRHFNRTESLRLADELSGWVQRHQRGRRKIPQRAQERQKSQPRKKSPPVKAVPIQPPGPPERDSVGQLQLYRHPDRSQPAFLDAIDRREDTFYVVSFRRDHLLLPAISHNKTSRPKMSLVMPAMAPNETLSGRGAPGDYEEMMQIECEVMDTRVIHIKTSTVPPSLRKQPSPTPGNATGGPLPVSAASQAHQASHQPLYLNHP

[6] = molecular target: T6, CREBL1 with N-terminal c-Myc-tag
T6 chain: T5 chain

[7] = molecular target: T7, ATF6 with N-terminal c-Myc-tag
T7 chain: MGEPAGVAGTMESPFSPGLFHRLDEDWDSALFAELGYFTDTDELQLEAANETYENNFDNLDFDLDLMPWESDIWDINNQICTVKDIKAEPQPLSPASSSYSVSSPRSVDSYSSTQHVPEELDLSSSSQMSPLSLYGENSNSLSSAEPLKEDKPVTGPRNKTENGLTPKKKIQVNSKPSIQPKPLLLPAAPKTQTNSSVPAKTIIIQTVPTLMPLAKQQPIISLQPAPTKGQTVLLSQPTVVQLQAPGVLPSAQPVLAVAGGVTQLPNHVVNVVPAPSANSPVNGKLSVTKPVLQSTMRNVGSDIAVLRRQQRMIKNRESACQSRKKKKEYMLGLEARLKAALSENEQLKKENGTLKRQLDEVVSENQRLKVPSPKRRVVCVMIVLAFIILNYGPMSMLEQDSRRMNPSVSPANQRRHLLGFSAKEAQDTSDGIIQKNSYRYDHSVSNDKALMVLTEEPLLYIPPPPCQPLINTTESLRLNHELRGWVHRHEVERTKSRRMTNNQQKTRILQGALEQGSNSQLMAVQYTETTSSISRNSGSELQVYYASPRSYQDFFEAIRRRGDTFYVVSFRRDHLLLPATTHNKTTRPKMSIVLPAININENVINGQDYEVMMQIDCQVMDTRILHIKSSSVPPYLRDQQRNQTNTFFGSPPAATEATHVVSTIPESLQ

B1: mature HtrA2 with C-terminal histidine (His)-tag (protein)
chain: MAVPSPPPASPRSQYNFIADVVEKTAPAVVYIEILDRHPFLGREVPISNGSGFVVAADGLIVTNAHVVADRRRVRVRLLSGDTYEAVVTAVDPVADIATLRIQTKEPLPTLPLGRSADVRQGEFVVAMGSPFALQNTITSGIVSSAQRPARDLGLPQTNVEYIQTDAAIDFGNSGGPLVNLDGEVIGVNTMKVTAGISFAIPSDRLREFLHRGEKKNSSSGISGSQRRYIGVMMLTLSPSILAELQLREPSFPDVQHGVLIHKVILGSPAHRAGLRPGDVILAIGEQMVQNAEDVYEAVRTQSQLAVQIRRGRETLTLYVTPEVTE
in vitro protease assay: degradation pattern of biotinylated SHC3 (p52) (streptavidin HRP and anti-V5 blots) [1]: remarkable reduction of the band of biotinylated SHC3 (p52) was observed, but the band that was supposed to be a degradation product of SHC3 (p52) was not detected
in vitro protease assay: degradation pattern of biotinylated SHC3 (p64) (streptavidin HRP and anti-V5 blots) [2]: remarkable reduction of the band of biotinylated SHC3 (p64) was observed, and further, the bands that were supposed to be a degradation products of SHC3 (p64) were detected around 70 kDa, 40 kDa, and 30 kDa
in vitro protease assay: degradation of SHC3 (p52), anti-Myc Western blot [3]: Further it was observed that SHC3 (p52) was also degraded by mature HtrA2.
in vitro protease assay: band of SHC3 (p64) on anti-Myc Western blot [4]: the band of SHC3 (p64) was significantly reduced after the reaction of active HtrA2 with SHC3 (p64) for four hours (4 h) or overnight (O/N)
in vitro protease assay: degradation pattern of biotinylated CREBL1 (streptavidin HRP and anti-Xpress blots) [5]: remarkable reduction of the band of biotinylated CREBL1 was observed, and further, the band that was supposed to be a degradation product of CREBL1 was detected around 50 kDa
in vitro protease assay: band of CREBL1 on anti-Myc Western blot [6]: the band of CREBL1 was significantly reduced after the reaction of active HtrA2 with CREBL1 for overnight (O/N)
in vitro protease assay: band of ATF6 on anti-Myc Western blot [7]: the band of ATF6 was significantly reduced after the reaction of active HtrA2 with ATF6 for four hours (4 h) or overnight (O/N)

B2: mature HtrA2 (S306A) with C-terminal histidine (His)-tag (protein)
chain: B1 chain with S174A
in vitro protease assay: degradation of biotinylated SHC3 (p52) (streptavidin HRP blot) [1]: the degradation of SHC3 (p52) by inactive HtrA2 (mature HtrA2 (S306A)) was not observed
in vitro protease assay: degradation of biotinylated SHC3 (p64) (streptavidin HRP blot) [2]: the degradation of SHC3 (p64) by inactive HtrA2 (mature HtrA2 (S306A)) was not observed, and the bands around 70 kDa, 40 kDa and 30 kDa as above were not detected
in vitro protease assay: degradation of SHC3 (p52), anti-Myc Western blot [3]: the degradation of SHC3 (p52) by inactive HtrA2 (mature HtrA2 (S306A)) was not observed as well
in vitro protease assay: degradation of SHC3 (p64), anti-Myc Western blot [4]: the degradation of CREBL1, ATF6, and SHC3 (p64) by inactive HtrA2 (mature HtrA2 (S306A)) was not observed
in vitro protease assay: degradation of biotinylated CREBL1 (streptavidin HRP blot) [5]: the degradation of CREBL1 by inactive HtrA2 (mature HtrA2 (S306A)) was not observed, and the band around 50 kDa as above was not detected
in vitro protease assay: degradation of CREBL1, anti-Myc Western blot [6]: the degradation of CREBL1, ATF6, and SHC3 (p64) by inactive HtrA2 (mature HtrA2 (S306A)) was not observed
in vitro protease assay: degradation of ATF6, anti-Myc Western blot [7]: the degradation of CREBL1, ATF6, and SHC3 (p64) by inactive HtrA2 (mature HtrA2 (S306A)) was not observed
